Test results as given in the supplement of paper PMC12636428.

Test system: Saccharomyces cerevisiae
Assay: transcriptional activation domain activity (GFP:mCherry ratio, weighted mean of sorted bins, harmonized to initial dataset scale) (arbitrary fluorescence ratio units); higher = stronger transcriptional activation
Settings: beta-estradiol 1 µM; induction time 4 h
Method in brief: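 In diploid yeast carrying a GFP reporter, barcoded protein tiles fused to an estradiol-inducible synthetic transcription factor were integrated at the URA3 locus. Cultures diluted 1:5 into SC with 1 uM beta-estradiol were kept at 30 °C for 4 hours, then sorted by GFP:mCherry ratio into 8 bins before barcode sequencing. Tiles with under 50 reads were excluded. The activation activity reported here is the read-weighted mean of bin median fluorescence, averaged across barcodes and linearly rescaled to the initial dataset.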

Row | Sequence | transcriptional activation domain activity
1 | RDMLIDTYLTPENLYDVHGPGVPVKTLEIATALVDIVGQYDHNMKLEAWNVLH | 50000
2 | SMGENLFDVFRARVILTWYYWTHARWCDVYMSSVISLRLAVTCGLNGCPPFQT | 75000
3 | EEGGKEKEMREVERLSADERKLWGEALRLGRTGYSESAMIWVHVLALRVFVET | 37700
4 | MYSRIFIGLSFFLISFFISIIFLFICKEHSFSPIGFFLTRFLLFHVFSLFFTF | 62800
5 | MLHGSGAVFGSGFLSLVSLVLWLISYYCCTWTWKGIFILSICFFNTCIYIECI | 49800
6 | MSPLDQVAEDDLSKRRKPHTKSRHGCIDCRRRRVKCGEEKPCCRTCVRRGVRC | 44400
7 | QRGVGTGVLKVGVDGGGHDEERIRWEAEMVGRERNWVLKKFLGQAISSQLDHA | 44800
8 | SYWLTIQRYGGWFPNRVQSSSTSFSVFLHFSNPFWLHGWWLLCCLLRLASFVL | 79900
9 | ARAEELGARVSTGRRVVDVRCSSRGEEGSAAVAVCADGSRYAADLVVGADGVH | 51600
10 | FVGNQAGCYNLVPVYDWIKRCIISIFVVFFISFLPLFLQELCERGVIRALYRL | 72800
11 | VILLPLSFSLWYCLLFAYGILVSLYLLTLKNPTEINFLGFYIWKYENAFWVLM | 60100
12 | MGFLTVHSCVFCFVVWVFFFPFFFLRDWFFSHSIFFLSLFFLVFFYIHLFLLG | 43700
13 | QLQPFSESQSQNKFDYDMFFRDSSKEGNNLFGEFLEDDDDDKKAANMSDDESS | 43800
14 | GKRAGAKGKKEASKKKKSQGSSRKGSGKGKKGNGGKGKNGGGKDKGKKSGKKG | 21800
15 | RGGGRADQGRRKSPARARSASASSQSSSRSRSASRDSDQSNRRSKATSPGGRG | 32500
16 | DTWGMEMEMEMEFLFLFLFVIFFLPCLSFFFSYFFSSNLLFFFFVFVMSFSFM | 73000
17 | SMLEQQESTSAARAEGQRGGAVQEGDIELVDAACVQLASRISPKSLLQRPMVD | 31900
18 | MYVEIFFLSLVWRIIIVLSLTSKGVFFNITYLFFRFLFSLVLCIFFFLHFFSL | 43100
19 | APAPIAAEPAPAPAVETPAPAPAPATEEKKEEAAAPAVEATPAPAAAPAAATT | 30500
20 | VMLSFFICRPILRLLHVFHISSPIYLYLPFVPLHLLIYPSFLIDVGLLSMVLA | 65200
21 | AINYASMCKQYERAEYTQRLMIELDPVLRHSWSRRLATWRLTETWTHYLVLNI | 68900

Row | Sequence | transcriptional activation domain activity
22 | MSFFFFFIRYFPWLFDFWLLAFVFYCLLIPRLNIFFLSFSCFNFLVFSLLLVG | 56000
23 | PAYEMCTYVWGFRGACLGLLWLIWFVVLYFVLRIRNIHSSFNERIESIIICFL | 48800
24 | EEAFVAINLRNLLTFGLTYFINDWILDDGVLFVFCILGMLFLVVCLMTIPLWI | 29000
25 | VGIKVAEDKQQEMRDAGRRTRGARLSSFGNALVIGGGRLSDGYVGTRELKTHV | 50500
26 | LEHVVLLLYCISAVVLQTRYGSVPIGWIEERPITIGFTMAFSGALRDCLMYAA | 56400
27 | MAKLRELMKKLEEEVVGEDGEKRMVQPTIMQEPFRSFFRTAVSVYLPNVLGAK | 52600
28 | EETKEDESSSSPADKENEKPKANTSAKQAKPRGEKKEGAASKGKGGRKQANGT | 33200
29 | PVNFIFVKLAKVFPLDYLFMVLLIIYFFLVTLTGIITLGVRFFWITLFRIRRG | 19400
30 | MLNLSYPFVLFILVPLILIPTCFCPFFVGPSYMSFCLSWLLPLFSFLPLLMLM | 50300
31 | DNMSLLNLPILEETVSSGQDDKVEPDEEDIWNYLPSSSSQQEDSSRALKKNTN | 20900
32 | MAWAYGSCLCRCCFFFASLWQFLFFVFGFLPFWPFFGFLLFISVVLPPSSLFL | 46100
33 | IEAEEAEEIGVEHLLRDIASSSGAPSSTLLTTQSLSTRVAAQLNALQGLRARL | 66900
34 | MYLAVHWFYISGCTHHIFMIFLFMSKFLCLLMLLLSSCVVLSSFRTIFVLSFS | 62700
35 | GGIIMAFFLRLNFGLWGICIALFGLRGQAELPLLIHVQRHILSIYVIIPRWFW | 56300
36 | EQEVQEERARTGTKGRKRALDDDAAKEEKEEKKEKPEKKEKATKSGKATSAAS | 20800
37 | MIMILLVAVLYFLLFRFDLLGLFYCQLFLLSSHLRFVLSTLYLNGSHHLLFFF | 34000
38 | ANEEAEPEHPEPAAEANDSTGREGRGRGKRGRDRGRGRGRGRGGRSGRGGASG | 27600
39 | MTISSPYCLFRCVAYGPWQTLSVLFCFFFFLLLFLSPSLHHLFYFLSLDFFSY | 55500
40 | HSPEAANAALRAMDGHSLEGHALKIQGSHRGADAAEERRKEDAAKKATGTKIL | 44000
41 | MLFGRSFMGTYFISGKHVFFFFLVFFNSLFLFYLLTSTFISICITGSLFFFVL | 30400
42 | AHSKKKTCDVCKYPYSFTKVYAQDMPARLPVFLLLRRLAQQGALAMLFAIRAV | 73300

Row | Sequence | transcriptional activation domain activity
43 | TRHARALEVIKFTKRILSVGGMKYRERMFWWCPIDSATVRAWMLWVLGSIPLV | 62900
44 | MYLFVLYLFFFIIVIRLFMLLFCVYFSVIFCYLFTLVLLLLFIIFFKLIFILL | 62600
45 | GASGGTKLAKKAPAAAAPKKVAAPKKEAAPKKEIKEKKPAAAPKKAAVPKKEA | 38800
46 | YHVQQSNIQLYDNDQVHIFLRKHFLYWLEALSLIGRLYEGVLALKILESILTL | 61500
47 | DEVLKPLWLGIRLHRGKGLAAFLKAIGFIIPLMDPNTLTVILIREFQTSDEEM | 15100
48 | RLYMLCTKIFLLLVGQRSEVGLTYASCITFMLCAAIPSESFVRNLVLLRVMLA | 58400
49 | KFLRHVLLKYFSFRLRSWMLNWAIGCVVRLFFFILHLLHPSWIFFLIYPYILN | 54400
50 | EVVLLPDLCGFCCFSMRFVVLLDLIGTLTLPVTACYLVYLIYVIASGNGPFPL | 46800
51 | ITGTAYLGKFLRNTLGYDLEVFHAELMVKADIFSLNPHEIMNLIVILFHLMLY | 57900
52 | GKRNSGAGGASAKAKARGAGKKPAAAGGKAGKKNVRAAKSKGKAAGARTKPAA | 43900
53 | RVYKRDPMLYLSSGWQYQGHFVYVTRLDVIHLSSWLRVFCFQIQHFSSVWWVL | 59000
54 | AEDSDASMDDAPAPKEAAKKAAPVEAGSDSESDSEAEKKKKKAAKKSKKEVVP | 22600
55 | KFIWRSSWSLPKIMYLLIRYLGLVCLLYYAMNAVTVQKSIAVCQLYIISMHTV | 67000
56 | ELLESTEREGGRGLRPAKAEVREGGLDGVVGGLEDLRGGRVSGRKLVYRVGTE | 35700
57 | DSHHHDELGSEITLADNKFSYLPPTLEELMEEQDCNNGRSFKNFMFSNDTGID | 54500
58 | VMMAIIYLMVIFTFIIGVVAGVVPFLYFLSESHFLMCRKASETAGFLCLMFAA | 33700
59 | PHGLLLPLLAHLFSLVLKISFLFCFEYKLAIFIFALVWQSLVVASLTCGFVFV | 55700
60 | EADGERRSNGGSAGPRAGRRGGRDRDDRKGKPSKDSKARGEKSSEEKIGSNKE | 47500
61 | YTIGFVGFVMSLQKGYLKQQFGLFCWVHMSLLIIVLSSHFVINNILEGLIWFW | 54600
62 | MAGIVTRVCLILCSPLFPLSLRNFIILHCVYLPLSNSWYISPPFLLYCLQTVY | 62700
63 | PLEYFDIKALSALIVFDEFPNYIIGLLLQSYPELVHGTFMPYIECMLFTMNPL | 61800

Row | Sequence | transcriptional activation domain activity
64 | TLYWSYGMYIMYNGPHWLNTSYYWIDYPHILISRQTKTYYLMQLAFWVQQVYT | 41600
65 | LASRNPPTATSPCTRTPAPAPAPRTASTTRASTPCTASTAPRAATSAACSPAA | 53100
66 | NEEEEEASDHEAEEPKPKKKRGRLAKEVDEEPEAPAPKKARGRPRKAVVKEED | 24400
67 | ACFLGYPIQIDPTFTDFELLSSFSGVIDSCAQSDTLWDFNSFDVAAVLSPLLD | 143000
68 | MFISICICSPYFQGCLAHTFYLFFYWGYLDCSLPPLVLQQRLLLWLLFDSFFI | 46000
69 | HLGHEAQASIEEEEEEEEEEEEEEEEEERRGEGGSVRKATHKIAAATVASVGT | 33300
70 | DEYGNAKIRDLRLKPVQTISDSQTVDEAVELMRDKGYDQVPVTSSTGRRLVGM | 73300
71 | FDTRGAIYCSRPRMVMMCELMGWDAAFVLMPYTPRWRRHRRLFHQHFNEAVAN | 80200
72 | SFLEGAQHVVLGPGNFQWRGTKCKSFDAFIFNFIRVPRLEYWKLIRRSNCYRY | 52500
73 | FFFVCYILQTLGMIAYMIMIVYDYYQNYLWFRGVAVVQSSTFIGQWYVFFIWF | 57700
74 | ERHLLPGNIFWAVAFGWWLSGCCMIVSGLLYLVPMGGGRYGKLIYGLGWYLAW | 65400
75 | MGSTIVFSVVFIWFFLVSFQQLLPFPKGTFFLLFLFPFSLSLPESSCIIFLAF | 51800
76 | KQPKKKAAAKKAQAPKKGKKRAADDDEEEEGEEDVKPKARGKGKGKAATGKGR | 42300
77 | MPRPFSFFFSFLLFLLFFFSIFFIFLFLLFFFLVKGIWTTYKYVLVTCLYLVI | 32700
78 | KSYVAILGYIMYPPTTRLVIHIRVWADALRALSSQAMLKTYLLTRGYQFRSIV | 58900
79 | RPVLDVALAAGEEDLSSKPRCQRCRKSKKGCDRQRPCGRCRDAGIGIEGCISE | 31500
80 | AGGAFETGGKRRKGKEKVRLDYNAIAGGQVALVKDDLELLIVHLLISRYLGEA | 19000
81 | IYVELYFILSSIWFSRIYYMFGFLFLCYGLMIMTCATVTILMVYFLLCAENYN | 58300
82 | SKHRRRHRSSSRERHRHRERDGEPSSSRHRSRRDRSRSKDRSKKEESHRSHRS | 24500
83 | MAMVRCMDLYNLDGNGMGKFYTWQFFPFFRFWFLPVCMLLLPFVLVSCLAFFI | 58400
